Consider three substances from paper PMC7590123.

For series [1], the system named is T1, PhaD-His6 (Pseudomonas putida KT2440), ORF:4b0e7042.
T1 sequence: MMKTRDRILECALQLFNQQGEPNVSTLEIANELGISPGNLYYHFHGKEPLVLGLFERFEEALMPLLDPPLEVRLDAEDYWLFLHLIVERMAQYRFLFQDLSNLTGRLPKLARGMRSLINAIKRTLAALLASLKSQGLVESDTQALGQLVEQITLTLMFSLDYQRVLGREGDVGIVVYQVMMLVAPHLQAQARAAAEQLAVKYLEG
Kind of series: EMSA. (In general: Mobility shift assays separate free from complexed probe on a gel.)

For series [2], the target named is T18‐PhaC1 (bacterial two‐hybrid fusion, pUT18C‐phaC1) (P. putida). Kind of series: two-hybrid.

As to “CCGTACACTTCCGAGGATGGGCGCACCTCAGGCAGCATCTGCCGCGGGATGCCCAGGATTTCCAGCAGCTTGTCGTCCCACTGCAGGCTGTGGATGTTGAACATCAGCGTGCGCGAGGCATTGGTGTAGTCGGTGACGTGAACCTTCCCACCCGTAAGCTTCCAGATCAGCCAGGTG (double strand) [glpK coding fragment]”, in series [1], the binding entry is on record as “no binding”. Same read-out and setting: the same measure for “CGCGGATCCATGCTGTGTACCTCATGCTCATGAGTGGTGGAAAACCGCCCATGGAGGCTGGGCTTGAGCATTAAGGTAGGGAAGAAAATTAGAAACCTCACCCTAAGGTCGTCGTTGTCGCATCTATATACCGCAAGCCCCGTTGACCACAGCGCTAGCGTCGCAGGCTTCACCTCACGGACATCGACGCCATGACTGCTGTAGCAAACCCACCCAGGCTGACGTTCAAGCAAAGCGTGGCAGGAATTCCGG (double strand) [PI promoter probe (phaI upstream, 230 bp)]”: “binds”. “T18‐PhaC1 (bacterial two‐hybrid fusion, pUT18C‐phaC1) (natural protein)” had a β‐galactosidase activity in series [2] of 1730 U/mg CDW.
